Assay results: patent US20050182242A1, “Global analysis of protein activities using proteome chips” (priority 2001, published 2005)

B1: Eno2p: yeast enolase, GST fusion (protein, UniProt P00925 2-437, looked up)
Enolase 2: AVSKVYARSVYDSRGNPTVEVELTTEKGVFRSIVPSGASTGVHEALEMRDEDKSKWMGKGVMNAVNNVNNVIAAAFVKANLDVKDQKAVDDFLLSLDGTANKSKLGANAILGVSMAAARAAAAEKNVPLYQHLADLSKSKTSPYVLPVPFLNVLNGGSHAGGALALQEFMIAPTGAKTFAEAMRIGSEVYHNLKSLTKKRYGASAGNVGDEGGVAPNIQTAEEALDLIVDAIKAAGHDGKVKIGLDCASSEFFKDGKYDLDFKNPESDKSKWLTGVELADMYHSLMKRYPIVSIEDPFAEDDWEAWSHFFKTAGIQIVADDLTVTNPARIATAIEKKAADALLLKVNQIGTLSESIKAAQDSFAANWGVMVSHRSGETEDTFIADLVVGLRTGQIKTGAPARSERLAKLNQLLRIEEELGDKAVYAGENFHHGDKL
modifications: GST tag
notes: yeast enolase, GST fusion
B2: Hxk1p: yeast hexokinase, GST fusion (protein, UniProt P04806 1-485, looked up)
Hexokinase-1: MVHLGPKKPQARKGSMADVPKELMDEIHQLEDMFTVDSETLRKVVKHFIDELNKGLTKKGGNIPMIPGWVMEFPTGKESGNYLAIDLGGTNLRVVLVKLSGNHTFDTTQSKYKLPHDMRTTKHQEELWSFIADSLKDFMVEQELLNTKDTLPLGFTFSYPASQNKINEGILQRWTKGFDIPNVEGHDVVPLLQNEISKRELPIEIVALINDTVGTLIASYYTDPETKMGVIFGTGVNGAFYDVVSDIEKLEGKLADDIPSNSPMAINCEYGSFDNEHLVLPRTKYDVAVDEQSPRPGQQAFEKMTSGYYLGELLRLVLLELNEKGLMLKDQDLSKLKQPYIMDTSYPARIEDDPFENLEDTDDIFQKDFGVKTTLPERKLIRRLCELIGTRAARLAVCGIAAICQKRGYKTGHIAADGSVYNKYPGFKEAAAKGLRDIYGWTGDASKDPITIVPAEDGSGAGAAVIAALSEKRIAEGKSLGIIGA
modifications: GST tag
notes: yeast hexokinase, GST fusion

Assays:
[1] = system: phospholipids (phosphatidylinositols vs phosphatidylcholine); assay: Proteome chip lipid-binding screen, overall analysis of six liposomes (PI/PC specificity); conditions: phospholipid liposome probes
Text: FIGS. 4A-4D. Analysis of the phosphatidylinositol-binding proteins. To determine the phosphatidylinositol (“PI”)-binding specificity of 150 positive proteins, their binding signals were normalized against the corresponding binding signals of phosphatidylcholine (“PC”). Based on the ratios (“PI/PC”), the proteins were grouped into four categories: (A) 30 strong and specific, (B) 43 strong and nonspecific, (C) 19 weak and specific, and (D) 58 weak and nonspecific phosphatidylinositol-binding proteins. The intensity represents the PI/PC signal ratio as shown by the scale in the figure. The column, labeled “10^n” to the right of the PI/PC binding ratios indicates the maximum binding signal intensity (open boxes) and its confidence interval (solid horizontal lines); the numbers indicate the log of the values. Boxes in the three columns to the right of the confidence interval column indicate membrane-associated proteins (“Membrane”), kinases (“Kinase”), and uncharacterized ORFs (“Unknown”), respectively.
To identify PI-binding proteins in yeast, liposomes were used as probes because the liposome provides the most relevant physiological condition to assay the interactors. Six types of liposomes were used. Each contains phosphatidylcholine (“PC”) with 1% (w/w) N-(biotinoyl)-1,2-dihexadecanoyl-sn-glycero-3-phosphoethanolamine, triethylammonium salt (biotin DHPE). The biotinylated lipid serves as a label that can be detected by Cy3-streptavidin (21). In addition to PC, the five other liposomes contain either 5% (w/w) PI(3)P, PI(4)P, PI(3,4)P2, PI(4,5)P2, or PI(3,4,5)P3 (FIG. 3A).
The protein-liposome interaction was assayed as follows. Appropriate amounts of each lipid in chloroform were mixed and dried under nitrogen. The lipid mixture was resuspended in TBS buffer by vortexing. The liposomes were created by sonication. Blocked proteome chips were washed three to five times in PBS buffer, and the extra liquid on the glass surface was removed by tapping the slides vertically on a KIMWIPE™. 200 μl of liposome solution was added to the proteome chip and immediately covered by a hydrophobic plastic cover slip (GRACE BIO-LAB™, USA). After trapped air bubbles were removed, the chip was incubated in a humidity chamber at RT for one hour. To remove the cover slip, the chip was immersed into large volume of PBS buffer (50 ml), so that the slip would float away. The chip was then moved to a second PBS bath (>50 ml) and washed 3×5 min with shaking at RT. After removing extra liquid on the surface of the chip, about 100 μl of Cy3 or Cy5 conjugated streptavidin (PIERCE™, USA; 1:2000 to 1:4000 dilution) was added to the surface and covered by a hydrophobic plastic cover slip (GRACE BIO-LABS™, USA). The chip was incubated for greater than 30 min in the dark at RT. The chip was then washed as described above. To completely remove the liquid on the chip, the chip was spun to dryness at 1500-2000 rpm for 5-10 min at RT.
An algorithm was devised to assist in the identification of positive signals (42). Fifty-two (35%) of the interactors (i.e., lipid-binding proteins) correspond to uncharacterized proteins thus ascribing the first biochemical activities to those proteins.
The interactors (i.e., phospholipid-binding proteins) were grouped in several ways (42). First, the interactors were sorted according to whether they bound lipids strongly or weakly, based on the phospholipid-binding signal relative to the amount of GST (FIG. 4). Slightly more (72%) of the strong lipid binding proteins (FIGS. 4A and 4B) were characterized relative to the weakly binding proteins (54%) (FIGS. 4C and 4D). Many of the strong lipid-binding proteins are membrane-associated, or are predicted to be associated with membranes, whereas fewer of the weaker binding proteins appear to be associated with membranes (FIG. 4, “Membrane” column). […] Moreover, thirteen of the seventeen protein kinases bind very strongly to the phospholipids. […]

PI(4,5)P2 liposomes = assay: Nitrocellulose membrane assay: adhered PI(4,5)P2 liposomes probed with GST fusion proteins; type: binding; conditions: dilution series, anti-GST antibodies, ECL
Text: A. PI(4,5)P2 liposomes were first adhered to a nitrocellulose membrane, which was blocked by BSA; a dilution series of Rim15p, Eno2p, and Hxk1p, and a GST control were used to probe the membrane. The bound proteins were detected using the anti-GST antibodies and an enhanced chemiluminescence (“ECL”) kit.
Therefore, six proteins, i.e., Rim15p, Eno2p, Hxk1p, Sps1p, Yg1059wp, and Gcn2p, were further tested for phosphoinositol binding using two types of standard assays (Williamson, 2000, Nat. Struct Biol. 7(10):834-7). For Rim15p, Eno2p, and Hxk1p, PI(4,5)P2 liposomes were first adhered to a nitrocellulose membrane, which was then blocked by BSA; different amounts of the GST fusion proteins and a GST control were used to probe the membrane, and bound proteins were detected using anti-GST antibodies. […] We also carried out the reverse assay for four GST fusion proteins, Rim15p, Sps1p, Yg1059wp, and Gcn2p (Guerra et al., 2000, Biosci. Rep. 20: 41). Different amounts of these purified proteins were spotted onto nitrocellulose filters and probed with the six different liposomes (FIG. 5B). The bound liposomes were detected using a horseradish peroxidase (“HRP”)-conjugated streptavidin.

Molecule	identified as lipid-binding interactor [1]	binding to PI(4,5)P2 liposomes on membrane (PI(4,5)P2 liposomes)
B1	identified	tightly bound PI(4,5)P2
B2	identified	tightly bound PI(4,5)P2
